# How the values were obtained:
# TK2268p (TK2268 protein) = target: T1, TK2268p (TK2268 protein) (Thermococcus kodakarensis, UniProt Q5JHU0); assay: initial velocity, HPLC after o-phthalaldehyde derivatization; substrate inhibition fit; format: biochemical; conditions: substrate inhibition constant, second site (second substrate binding to enzyme-substrate complex), 20 µM PLP, 50 mM HEPES pH 7.5, 80°C
# T1 construct: full-length, C-terminal His6-tag, overexpressed homologously in T. kodakarensis, His GraviTrap and gel filtration
# Text: (§1) initial velocity, HPLC after o-phthalaldehyde derivatization; substrate inhibition fit on TK2268p (TK2268 protein)
# purified protein [1] = substrate: N[C@@H](CC(=O)O)C(=O)O; assay: purified protein; conditions: amino donor, 10 mM 2-oxoglutarate, 20 µM PLP, 50 mM HEPES pH 7.5, 80°C
# purified protein [2] = substrate: O=C(O)CC(=O)C(=O)O; assay: purified protein; format: biochemical, Thermococcus kodakarensis; conditions: amino acceptor, 4 mM glutamate, 20 µM PLP, 50 mM HEPES pH 7.5, 80°C, substrate inhibition model, Ks1 described as dissociation constant of first substrate
# [3] = substrate: N[C@@H](CCC(=O)O)C(=O)O; assay: initial velocity, HPLC after o-phthalaldehyde derivatization; format: biochemical, Thermococcus kodakarensis; conditions: amino donor, 10 mM oxaloacetate, 20 µM PLP, 50 mM HEPES pH 7.5, 80°C
# Text: initial velocity, HPLC after o-phthalaldehyde derivatization on TK2268p (TK2268 protein)
# [4] = substrate: O=C(O)CCC(=O)C(=O)O; assay: initial velocity, HPLC after o-phthalaldehyde derivatization; substrate inhibition fit; format: biochemical, Thermococcus kodakarensis; conditions: amino acceptor, 10 mM Asp, 20 µM PLP, 50 mM HEPES pH 7.5, 80°C, substrate inhibition model, Ks1 described as dissociation constant of first substrate
# Text: as §1
molecule,measurement,setting,value
"O=C(O)CC(=O)C(=O)O [OAA, oxaloacetate]",Km,TK2268p (TK2268 protein); 4 mM glutamate,13.2 ± 1.2 mM
"O=C(O)CCC(=O)C(=O)O [2-OG, 2-oxoglutarate]",Km,TK2268p (TK2268 protein); 10 mM Asp,5.9 ± 1.6 mM
"TK2268p (TK2268 protein) (Thermococcus kodakarensis KOD1) (protein, full-length, C-terminal His6-tag, overexpressed homologously in T. kodakarensis, His GraviTrap and gel filtration) MRYKKRKYFMAGRINILQRSKIRELFEKASKMENVISLGIGEPDFDTPEVIKEAAKRAIDEGYTHYTPNAGIPEFREAIAEYYKEFYNVDVDMNNIIVTAGAYEATYLAFESILEQGDDVIIPDPAFVCYVEDAKIAEAGIIRIPLREENKFRIDPDELLEAITKRTRMIVMNYPNNPTGAIMKKDVAKAIADIAQDYNIYILSDEPYEHFLYEGARHHPMIKYAPDNTILANSFSKTFAMTGWRLGFAIAPEQVIRDMIKLHAYVIGNVTSFIQIAGITALRDKRSWEAVERMRQVYDERRKLVLKYLNDMPHITPFRPKGAFYIWAKIDPELDMTSEDFAEWLLENAGVVVIPGTAFGRQGEGWIRISYATEKEKLIEAMERMKEALSKL",Km,purified protein [1],10.3 ± 0.5 mM
same,Vmax,purified protein [1],232 µmol/min/mg
same,kcat,purified protein [1],175 s⁻¹
same,kcat/Km,purified protein [1],17000 M⁻¹ s⁻¹
same,Km,purified protein [2],1.3 ± 0.1 mM
same,Vmax,purified protein [2],360 µmol/min/mg
same,kcat,purified protein [2],270 ± 16 s⁻¹
same,kcat/Km,purified protein [2],208000 M⁻¹ s⁻¹
same,Km,[3],3.4 ± 0.3 mM
same,Vmax,[3],443 µmol/min/mg
same,kcat,[3],333 ± 12 s⁻¹
same,kcat/Km,[3],97800 M⁻¹ s⁻¹
same,Km,[4],38.8 ± 9.6 mM
same,Vmax,[4],1040 ± 230 µmol/min/mg
same,kcat,[4],781 ± 244 s⁻¹
same,kcat/Km,[4],20100 M⁻¹ s⁻¹

# — publication PMC11921379, “TK2268 encodes the major aminotransferase involved in the conversion from oxaloacetic acid to aspartic acid in Thermococcus kodakarensis” (Applied and Environmental Microbiology, 2025)
